Data from article PMC9017247.

Legend:
[1] = molecular target: recombinant SARS-CoV-2 spike protein (SARS-CoV-2) (UniProt P0DTC2); test: ITC; MicroCal ITC200; 50 uM rGRFT injected (2 uL, 120 s intervals) into the cell with 280 uL of 1 uM spike protein; 1x PBS, pH 7.4
[2] = molecular target: recombinant SARS-CoV-2 spike protein (SARS-CoV-2) (UniProt P0DTC2); test: QCM-D; spike protein (400 ug/mL) immobilised by EDC/NHS on an 11-MUA carboxylated gold sensor, ethanolamine-blocked; 0.5-10 uM rGRFT flowed in turn at 20 uL/min, 1x PBS

recombinant griffithsin lectin protein (rGRFT) (from UniProt P84801 1-121) (natural protein)
Kd [1]: 9.9 µM
stoichiometry N (rGRFT per spike) [1]: 6
Kd [2]: 1.6 µM
